Laboratory results published in patent US20190225650A1, “PEPTIDOMIMETIC MACROCYCLES AND USE THEREOF IN REGULATING HIF1ALPHA” (AILERON THERAPEUTICS, INC., priority 2013, published 2019).
Bridge positions count the residues as written; N and C are the ends. Square brackets hold non-standard residues; d marks the D form. S5 = C=CCCC[C@](C)(N)C(=O)O; Nle = CCCC[C@H](N)C(=O)O

B1: SP-9 (peptide)
peptide: Ac-AIDEEVL[Nle][S5]LVI[S5][Nle]ALDRI-NH2
modifications: staple 9-13
SMILES: CCCC[C@H](NC(=O)[C@H](CC(C)C)NC(=O)[C@@H](NC(=O)[C@H](CCC(=O)O)NC(=O)[C@H](CCC(=O)O)NC(=O)[C@H](CC(=O)O)NC(=O)[C@@H](NC(=O)[C@H](C)NC(C)=O)[C@@H](C)CC)C(C)C)C(=O)N[C@@]1(C)CCCC=CCCC[C@@](C)(C(=O)N[C@@H](CCCC)C(=O)N[C@@H](C)C(=O)N[C@@H](CC(C)C)C(=O)N[C@@H](CC(=O)O)C(=O)N[C@@H](CCCNC(=N)N)C(=O)N[C@H](C(N)=O)[C@@H](C)CC)NC(=O)[C@H]([C@@H](C)CC)NC(=O)[C@H](C(C)C)NC(=O)[C@H](CC(C)C)NC1=O
B2: SP-15 (peptide)
peptide: Ac-FIDEEVA[Nle][S5]LVI[S5][Nle]ALDRI-NH2
modifications: staple 9-13
SMILES: CCCC[C@H](NC(=O)[C@H](C)NC(=O)[C@@H](NC(=O)[C@H](CCC(=O)O)NC(=O)[C@H](CCC(=O)O)NC(=O)[C@H](CC(=O)O)NC(=O)[C@@H](NC(=O)[C@H](Cc1ccccc1)NC(C)=O)[C@@H](C)CC)C(C)C)C(=O)N[C@@]1(C)CCCC=CCCC[C@@](C)(C(=O)N[C@@H](CCCC)C(=O)N[C@@H](C)C(=O)N[C@@H](CC(C)C)C(=O)N[C@@H](CC(=O)O)C(=O)N[C@@H](CCCNC(=N)N)C(=O)N[C@H](C(N)=O)[C@@H](C)CC)NC(=O)[C@H]([C@@H](C)CC)NC(=O)[C@H](C(C)C)NC(=O)[C@H](CC(C)C)NC1=O
B3: SP-26 (peptide)
peptide: Ac-FIDEEVLA[S5]LVI[S5]AALDRI-NH2
modifications: staple 9-13
SMILES: CC[C@H](C)[C@H](NC(=O)[C@H](CCCNC(=N)N)NC(=O)[C@H](CC(=O)O)NC(=O)[C@H](CC(C)C)NC(=O)[C@H](C)NC(=O)[C@H](C)NC(=O)[C@]1(C)CCCC=CCCC[C@](C)(NC(=O)[C@H](C)NC(=O)[C@H](CC(C)C)NC(=O)[C@@H](NC(=O)[C@H](CCC(=O)O)NC(=O)[C@H](CCC(=O)O)NC(=O)[C@H](CC(=O)O)NC(=O)[C@@H](NC(=O)[C@H](Cc2ccccc2)NC(C)=O)[C@@H](C)CC)C(C)C)C(=O)N[C@@H](CC(C)C)C(=O)N[C@@H](C(C)C)C(=O)N[C@@H]([C@@H](C)CC)C(=O)N1)C(N)=O
B4: SP-16 (peptide)
peptide: Ac-FIDEEVLA[S5]LVI[S5][Nle]ALDRI-NH2
modifications: staple 9-13
SMILES: CCCC[C@H](NC(=O)[C@]1(C)CCCC=CCCC[C@](C)(NC(=O)[C@H](C)NC(=O)[C@H](CC(C)C)NC(=O)[C@@H](NC(=O)[C@H](CCC(=O)O)NC(=O)[C@H](CCC(=O)O)NC(=O)[C@H](CC(=O)O)NC(=O)[C@@H](NC(=O)[C@H](Cc2ccccc2)NC(C)=O)[C@@H](C)CC)C(C)C)C(=O)N[C@@H](CC(C)C)C(=O)N[C@@H](C(C)C)C(=O)N[C@@H]([C@@H](C)CC)C(=O)N1)C(=O)N[C@@H](C)C(=O)N[C@@H](CC(C)C)C(=O)N[C@@H](CC(=O)O)C(=O)N[C@@H](CCCNC(=N)N)C(=O)N[C@H](C(N)=O)[C@@H](C)CC
B5: SP-12 (peptide)
peptide: Ac-FIDAEVL[Nle][S5]LVI[S5][Nle]ALDRI-NH2
modifications: staple 9-13
SMILES: CCCC[C@H](NC(=O)[C@H](CC(C)C)NC(=O)[C@@H](NC(=O)[C@H](CCC(=O)O)NC(=O)[C@H](C)NC(=O)[C@H](CC(=O)O)NC(=O)[C@@H](NC(=O)[C@H](Cc1ccccc1)NC(C)=O)[C@@H](C)CC)C(C)C)C(=O)N[C@@]1(C)CCCC=CCCC[C@@](C)(C(=O)N[C@@H](CCCC)C(=O)N[C@@H](C)C(=O)N[C@@H](CC(C)C)C(=O)N[C@@H](CC(=O)O)C(=O)N[C@@H](CCCNC(=N)N)C(=O)N[C@H](C(N)=O)[C@@H](C)CC)NC(=O)[C@H]([C@@H](C)CC)NC(=O)[C@H](C(C)C)NC(=O)[C@H](CC(C)C)NC1=O
B6: SP-30 (peptide)
peptide: Ac-EIDEEVL[Nle][S5]LVI[S5][Nle]ALDRI-NH2
modifications: staple 9-13
SMILES: CCCC[C@H](NC(=O)[C@H](CC(C)C)NC(=O)[C@@H](NC(=O)[C@H](CCC(=O)O)NC(=O)[C@H](CCC(=O)O)NC(=O)[C@H](CC(=O)O)NC(=O)[C@@H](NC(=O)[C@H](CCC(=O)O)NC(C)=O)[C@@H](C)CC)C(C)C)C(=O)N[C@@]1(C)CCCC=CCCC[C@@](C)(C(=O)N[C@@H](CCCC)C(=O)N[C@@H](C)C(=O)N[C@@H](CC(C)C)C(=O)N[C@@H](CC(=O)O)C(=O)N[C@@H](CCCNC(=N)N)C(=O)N[C@H](C(N)=O)[C@@H](C)CC)NC(=O)[C@H]([C@@H](C)CC)NC(=O)[C@H](C(C)C)NC(=O)[C@H](CC(C)C)NC1=O
B7: SP-10 (peptide)
peptide: Ac-FADEEVL[Nle][S5]LVI[S5][Nle]ALDRI-NH2
modifications: staple 9-13
SMILES: CCCC[C@H](NC(=O)[C@H](CC(C)C)NC(=O)[C@@H](NC(=O)[C@H](CCC(=O)O)NC(=O)[C@H](CCC(=O)O)NC(=O)[C@H](CC(=O)O)NC(=O)[C@H](C)NC(=O)[C@H](Cc1ccccc1)NC(C)=O)C(C)C)C(=O)N[C@@]1(C)CCCC=CCCC[C@@](C)(C(=O)N[C@@H](CCCC)C(=O)N[C@@H](C)C(=O)N[C@@H](CC(C)C)C(=O)N[C@@H](CC(=O)O)C(=O)N[C@@H](CCCNC(=N)N)C(=O)N[C@H](C(N)=O)[C@@H](C)CC)NC(=O)[C@H]([C@@H](C)CC)NC(=O)[C@H](C(C)C)NC(=O)[C@H](CC(C)C)NC1=O
B8: SP-14 (peptide)
peptide: Ac-FIDEEAL[Nle][S5]LVI[S5][Nle]ALDRI-NH2
modifications: staple 9-13
SMILES: CCCC[C@H](NC(=O)[C@H](CC(C)C)NC(=O)[C@H](C)NC(=O)[C@H](CCC(=O)O)NC(=O)[C@H](CCC(=O)O)NC(=O)[C@H](CC(=O)O)NC(=O)[C@@H](NC(=O)[C@H](Cc1ccccc1)NC(C)=O)[C@@H](C)CC)C(=O)N[C@@]1(C)CCCC=CCCC[C@@](C)(C(=O)N[C@@H](CCCC)C(=O)N[C@@H](C)C(=O)N[C@@H](CC(C)C)C(=O)N[C@@H](CC(=O)O)C(=O)N[C@@H](CCCNC(=N)N)C(=O)N[C@H](C(N)=O)[C@@H](C)CC)NC(=O)[C@H]([C@@H](C)CC)NC(=O)[C@H](C(C)C)NC(=O)[C@H](CC(C)C)NC1=O
B9: SP-32 (peptide)
peptide: Ac-FIDEEDL[Nle][S5]LVI[S5][Nle]ALDRI-NH2
modifications: staple 9-13
SMILES: CCCC[C@H](NC(=O)[C@H](CC(C)C)NC(=O)[C@H](CC(=O)O)NC(=O)[C@H](CCC(=O)O)NC(=O)[C@H](CCC(=O)O)NC(=O)[C@H](CC(=O)O)NC(=O)[C@@H](NC(=O)[C@H](Cc1ccccc1)NC(C)=O)[C@@H](C)CC)C(=O)N[C@@]1(C)CCCC=CCCC[C@@](C)(C(=O)N[C@@H](CCCC)C(=O)N[C@@H](C)C(=O)N[C@@H](CC(C)C)C(=O)N[C@@H](CC(=O)O)C(=O)N[C@@H](CCCNC(=N)N)C(=O)N[C@H](C(N)=O)[C@@H](C)CC)NC(=O)[C@H]([C@@H](C)CC)NC(=O)[C@H](C(C)C)NC(=O)[C@H](CC(C)C)NC1=O
B10: SP-31 (peptide)
peptide: Ac-FEDEEVL[Nle][S5]LVI[S5][Nle]ALDRI-NH2
modifications: staple 9-13
SMILES: CCCC[C@H](NC(=O)[C@H](CC(C)C)NC(=O)[C@@H](NC(=O)[C@H](CCC(=O)O)NC(=O)[C@H](CCC(=O)O)NC(=O)[C@H](CC(=O)O)NC(=O)[C@H](CCC(=O)O)NC(=O)[C@H](Cc1ccccc1)NC(C)=O)C(C)C)C(=O)N[C@@]1(C)CCCC=CCCC[C@@](C)(C(=O)N[C@@H](CCCC)C(=O)N[C@@H](C)C(=O)N[C@@H](CC(C)C)C(=O)N[C@@H](CC(=O)O)C(=O)N[C@@H](CCCNC(=N)N)C(=O)N[C@H](C(N)=O)[C@@H](C)CC)NC(=O)[C@H]([C@@H](C)CC)NC(=O)[C@H](C(C)C)NC(=O)[C@H](CC(C)C)NC1=O
B11: SP-11 (peptide)
peptide: Ac-FIAEEVL[Nle][S5]LVI[S5][Nle]ALDRI-NH2
modifications: staple 9-13
SMILES: CCCC[C@H](NC(=O)[C@H](CC(C)C)NC(=O)[C@@H](NC(=O)[C@H](CCC(=O)O)NC(=O)[C@H](CCC(=O)O)NC(=O)[C@H](C)NC(=O)[C@@H](NC(=O)[C@H](Cc1ccccc1)NC(C)=O)[C@@H](C)CC)C(C)C)C(=O)N[C@@]1(C)CCCC=CCCC[C@@](C)(C(=O)N[C@@H](CCCC)C(=O)N[C@@H](C)C(=O)N[C@@H](CC(C)C)C(=O)N[C@@H](CC(=O)O)C(=O)N[C@@H](CCCNC(=N)N)C(=O)N[C@H](C(N)=O)[C@@H](C)CC)NC(=O)[C@H]([C@@H](C)CC)NC(=O)[C@H](C(C)C)NC(=O)[C@H](CC(C)C)NC1=O

The binders below were run against T1, His6-tagged p300 (AA 323-423) (UniProt Q09472 323-423) (assay: TR-FRET HIF1a/p300 displacement; grade = IC50 >700 nM).
T1 construct: range 323-423; also called p300-CH; not shown: His6 tag
Experimental: The ability of peptides to displace HIF1α c-terminal trans-activation domain from p300-CH was measured by a TR FRET assay. […] The complex was diluted to 300 nM final in complete assay media and competitor peptides were added. The complete assay media contained 150 mM NaCl (Sigma +S5150 or equivalent), 20 mM HEPES pH 7.4 (Boston Bioproducts, Ashland, Mass.; #BB-2076), 7.5 mM CHAPS (Thermo #28300 or equivalent), and 1 mM DTT. Protein and peptide were incubated at room temperature for 1 hour before the addition of anti-Flag-K and anti-6×HIS-D2 (CisBio, Bedford Mass.) HTRF reconstitution buffer (50 mM Phosphate pH 7, 0.8 Potassium Flouride, BSA 0.2%)¹ to a final concentration of 0.5 μM and 4 nM respectively. The reaction continued for an additional two hours at room temperature. The reaction was read on a TECAN F500 plate reader with settings recommended by CisBio. The ratio of donor to acceptor fluorescence was calculated. The resulting data was analyzed with Graphpad Prism 5.0. IC50 values were calculated for both proteins using the One Site Fit-LogIC50 equation and presented in the column “IC₅₀ (nM) (HIF1α_p300 Displacement+CHAPS)” of Table 6. ¹ Cisbio USA, Bedford, Mass.; 61HISDLB (lot 007A), 61FG2KLB (024A), HTRF Buffer (62RB3RDF)

T1 sequence (Q09472 323-423 limits assumed): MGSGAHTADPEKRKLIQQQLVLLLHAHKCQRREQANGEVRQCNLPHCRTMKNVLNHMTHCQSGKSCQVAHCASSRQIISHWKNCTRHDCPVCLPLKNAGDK

| IC50 [nM] | Binder |
| --- | --- |
| > 700 | B1 |
| > 700 | B2 |
| > 700 | B3 |
| > 700 | B4 |
| > 700 | B5 |
| > 700 | B6 |
| > 700 | B7 |
| > 700 | FIDEEVLLALVIALALARI (not fully specified; Ac-FIDEEVL-Nle-$-LVI-$-Nle-ALARI-NH2) [SP-23] |
| > 700 | B8 |
| > 700 | B9 |
| > 700 | FIDEEVLLALVIAAALDRI (not fully specified; Ac-FIDEEVL-Nle-$-LVI-$-AALDRI-NH2) [SP-20] |
| > 700 | B10 |
| > 700 | B11 |
